Measurements reported in patent US20140179594A1, “STREPTOCOCCUS BACTERIOPHAGE LYSINS FOR TREATMENT OF GRAM POSITIVE BACTERIA IN COMPANION ANIMALS AND LIVESTOCK” (priority 2011, published 2014).

How the values were obtained:
Format in all cases: cell-based
[1] = tested on: B. thuringiensis HD73; test: ΔPlySs1 OD600 lysis, 1 hr
[2] = tested on: B. subtilis SL4; test: ΔPlySs1 OD600 lysis, 1 hr
[3] = tested on: S. suis strain (7711); test: PlySs1 optimal biochemical conditions, turbidity reduction (OD600); conditions: for pH of maximal lysis: bis-tris-propane (BTP) buffer
Method: FIGS. 11A and 11B depicts ΔPlySs1 pH dependence. (A) Cells of host strain 7711 were suspended in phosphate citrate buffer (40/20 mM) at a range of pH-values from 4.6 to 8.0. ΔPlySs1 was added (110 μg/ml) and OD600 was measured over 60 min (horizontal axis) at 37° C. The vertical axis represents the treated/untreated OD600-ratio at each timepoint. For each pH-value, the curve depicts the running average of 3 independent experiments. Overall, activity was maximal at the upper end of the buffering range. (B) Here, bis-tris-propane (40 mM) was employed as the buffering agent with a pH-range from 7.0 to 9.7; ΔPlySs1 was again added to 110 μg/ml. Each curve depicts the running average of 3 experiments.
FIG. 12 depicts ΔPLySS1 NaCl dependence. S. suis 7711 cells were suspended in phosphate-citrate buffer pH=7.8 (40/20 mM). NaCl was added to the above concentrations, followed by ΔPlySs1 at 110 μg/ml. Optical density at 600 nm was observed over 60 min at 37° C. In this figure, the vertical axis represents the treated/untreated OD600-ratio for each NaCl concentration, averaged over 3 independent experiments.
FIGS. 13A and 13B provides assessment of ΔPlySs1 DTT and EDTA susceptibility. (A) ΔPlySs1 was pre-incubated for 1 hr with 5 mM DTT (a large molar excess) prior to addition to 7711 cells; activity was unchanged. (B) Here, various concentrations of EDTA were included in the buffered suspension of cells prior to addition of ΔPlySs1 (110 μg/ml lysin). For both images, the vertical axis represents the treated/untreated OD600-ratio for each condition, averaged over 3 independent experiments.
(A) A ΔPlySs1 stock solution was held at each of the above temperature for 30 minutes, followed by addition to 7711 cells (270 μg/ml final enzyme concentration, final temperature=37° C., ideal buffering conditions). The curves in this image represent running averages of 3 individual experiments. In each case, complete loss of activity was observed between the 45° C. and 50° C. samples. The 3 hottest samples show a slightly higher OD600 reading than the untreated control due to flocculation of ΔPlySs1 upon denaturation. (B) The above experiment was repeated, but with 6 hours of heat-treatment prior to the assay. […] The 40° C. sample maintained essentially native activity.
The optimal biochemical conditions for PlySs1 were determined against live cells of the encoding S. suis strain (7711). For these experiments, activity was gauged through the degree of turbidity reduction (OD600) of an aqueous bacterial suspension following the addition of lysin. The pH-dependence of the enzyme was first addressed using two buffer sets with adjacent pH ranges, citrate/phosphate: 4.6-8.0; and bis-tris-propane (BTP): 7.0-9.7. An extended spectrum of lysis was observed, from 5.4-9.4 (FIG. 11A). In BTP, lysis was maximal from 8.2-9.0; at commensurate pH-values, however, the magnitude of the OD-drop was slightly more pronounced in citrate/phosphate (FIG. 11B).
At constant enzyme concentrations, bacteriolysis varied little from 0-1000 mM NaCl, with only small numeric increases under the most hypotonic conditions (FIG. 12). […] The thermal stability of PlySs1 was examined by incubating the enzyme at various elevated temperatures prior to use (the OD-drop experiment itself was always conducted at 37° C.). When held at 35° C.-60° C. for 30 min, lysin activity was virtually unaffected until 50° C., at which point it was completely abolished (FIG. 14A). […] The latter corresponds to typical porcine body temperature.

[4] = tested on: E. faecium EFSK2; test: ΔPlySs1 OD600 lysis, 1 hr
[5] = tested on: S. salivarius 9222; test: ΔPlySs1 OD600 lysis, 1 hr
[6] = tested on: L. monocytogenes HER1084; test: ΔPlySs1 OD600 lysis, 1 hr
[7] = tested on: S. pneumoniae R36; test: ΔPlySs1 OD600 lysis, 1 hr
[8] = tested on: S. epidermidis HN1292; test: ΔPlySs1 OD600 lysis, 1 hr
[9] = tested on: S. rattus BHT; test: ΔPlySs1 OD600 lysis, 1 hr
[10] = tested on: S. agalactiae 090R; test: ΔPlySs1 OD600 lysis, 1 hr
[11] = tested on: S. dysgalactiae 21597; test: ΔPlySs1 OD600 lysis, 1 hr
[12] = tested on: S. equi 700400; test: ΔPlySs1 OD600 lysis, 1 hr

B1: ΔPlySs1: truncated PlySs1 lysin with N-terminal enzymatic and central binding domains, N-terminal 254 amino acids, SEQ ID NO:2 (protein, listed as Streptococcus suis)
chain: MTINLETSIRWMSDRVGKVSYSMDYRNGPNSYDCSSAVYYALMAGGAISAGWAVNTEYMHDWLIRNGYVLVAENKPFNAQRHDVCILGKRGYSSGAGGHVVIFVDNVNVIHCNYARNGISIDNYNQVHRGMYYYLYRPANQPSISNKSLDQLVKETLAGVHGNGDTRKASLGSQYEAVMAVINGKASASEKSDEELAREVLAGKHGAGEDRKRSLGPRYEPVQAKVNELLKAKEKPSETAKNEPQTVQFKEDGDL
B1 was tested, and the “1-hour treated/untreated OD600-ratio” value ([1]; 6.5 μg/ml) was 0.99, the “1-hour treated/untreated OD600-ratio” value ([1]; 13 μg/ml) was 0.98 and the “1-hour treated/untreated OD600-ratio” value ([1]; 30 μg/ml) was 0.93. For the same molecule, the “1-hour treated/untreated OD600-ratio” value ([1]; 65 μg/ml) was 0.86, the “1-hour treated/untreated OD600-ratio” value ([1]; 130 μg/ml) was 0.60 and the “1-hour treated/untreated OD600-ratio” value ([2]; 6.5 μg/ml) was 1.07. The “1-hour treated/untreated OD600-ratio” value ([2]; 13 μg/ml) was 1.05, the “1-hour treated/untreated OD600-ratio” value ([2]; 30 μg/ml) was 1.04 and the “1-hour treated/untreated OD600-ratio” value ([2]; 65 μg/ml) was 1.03. For the same molecule, the “1-hour treated/untreated OD600-ratio” value ([2]; 130 μg/ml) was 0.96, the “effect of salt concentration on bacteriolysis” value ([3]; 0-1000 mM NaCl, constant enzyme concentration) was “varied little” and the “thermal stability, activity after heat treatment” value ([3]; 6-hr incubation at 40° C.) was “unaffected”. For the same molecule, the “thermal stability, activity after heat treatment” value ([3]; 6-hr incubation at 45° C.) was “partial decrease in activity”, the “pH of maximal lysis” value ([3]; S. suis 7711) was 9.0 and the “pH of maximal lysis” value ([3]; S. suis 7711, listed as PlySs1) was 8.2-9.0. For the same molecule, the “pH spectrum of lysis” value ([3]; S. suis 7711, citrate/phosphate 4.6-8.0 and bis-tris-propane 7.0-9.7) was 5.4-9.4, the “effect of DTT on activity” value ([3]; exposure to an excess of DTT (5 mM, 1 hr pre-incubation)) was “did not negatively impact activity” and the “effect of EDTA on activity” value ([3]; exposure to an excess of EDTA) was “did not negatively impact activity”. For the same molecule, the “temperature at which activity is completely abolished” value ([3]; held at 35° C.-60° C. for 30 min before assay at 37° C.) was 50 °C, the “1-hour treated/untreated OD600-ratio” value ([4]; 6.5 μg/ml) was 0.85 and the “1-hour treated/untreated OD600-ratio” value ([4]; 13 μg/ml) was 0.67. For the same molecule, the “1-hour treated/untreated OD600-ratio” value ([4]; 30 μg/ml) was 0.52, the “1-hour treated/untreated OD600-ratio” value ([4]; 65 μg/ml) was 0.32 and the “1-hour treated/untreated OD600-ratio” value ([4]; 130 μg/ml) was 0.13. The “1-hour treated/untreated OD600-ratio” value ([5]; 6.5 μg/ml) was 0.80, the “1-hour treated/untreated OD600-ratio” value ([5]; 13 μg/ml) was 0.76 and the “1-hour treated/untreated OD600-ratio” value ([5]; 30 μg/ml) was 0.56. The “1-hour treated/untreated OD600-ratio” value ([5]; 65 μg/ml) was 0.53, the “1-hour treated/untreated OD600-ratio” value ([5]; 130 μg/ml) was 0.37 and the “1-hour treated/untreated OD600-ratio” value ([6]; 6.5 μg/ml) was 0.63. The “1-hour treated/untreated OD600-ratio” value ([6]; 13 μg/ml) was 0.52, the “1-hour treated/untreated OD600-ratio” value ([6]; 30 μg/ml) was 0.26 and the “1-hour treated/untreated OD600-ratio” value ([6]; 65 μg/ml) was 0.14. The “1-hour treated/untreated OD600-ratio” value ([6]; 130 μg/ml) was 0.04, the “1-hour treated/untreated OD600-ratio” value ([7]; 6.5 μg/ml) was 0.25 and the “1-hour treated/untreated OD600-ratio” value ([7]; 13 μg/ml) was 0.22. For the same molecule, the “1-hour treated/untreated OD600-ratio” value ([7]; 30 μg/ml) was 0.14, the “1-hour treated/untreated OD600-ratio” value ([7]; 65 μg/ml) was 0.16 and the “1-hour treated/untreated OD600-ratio” value ([7]; 130 μg/ml) was 0.12. For the same molecule, the “1-hour treated/untreated OD600-ratio” value ([8]; 6.5 μg/ml) was 1.04, the “1-hour treated/untreated OD600-ratio” value ([8]; 13 μg/ml) was 1.00 and the “1-hour treated/untreated OD600-ratio” value ([8]; 30 μg/ml) was 0.96. For the same molecule, the “1-hour treated/untreated OD600-ratio” value ([8]; 65 μg/ml) was 0.94, the “1-hour treated/untreated OD600-ratio” value ([8]; 130 μg/ml) was 0.87 and the “1-hour treated/untreated OD600-ratio” value ([9]; 6.5 μg/ml) was 0.82. For the same molecule, the “1-hour treated/untreated OD600-ratio” value ([9]; 13 μg/ml) was 0.84, the “1-hour treated/untreated OD600-ratio” value ([9]; 30 μg/ml) was 0.82 and the “1-hour treated/untreated OD600-ratio” value ([9]; 65 μg/ml) was 0.83. The “1-hour treated/untreated OD600-ratio” value ([9]; 130 μg/ml) was 0.79, the “1-hour treated/untreated OD600-ratio” value ([10]; 6.5 μg/ml) was 0.97 and the “1-hour treated/untreated OD600-ratio” value ([10]; 13 μg/ml) was 0.99. For the same molecule, the “1-hour treated/untreated OD600-ratio” value ([10]; 30 μg/ml) was 0.97, the “1-hour treated/untreated OD600-ratio” value ([10]; 65 μg/ml) was 0.98 and the “1-hour treated/untreated OD600-ratio” value ([10]; 130 μg/ml) was 0.93. The “1-hour treated/untreated OD600-ratio” value ([11]; 6.5 μg/ml) was 0.26, the “1-hour treated/untreated OD600-ratio” value ([11]; 13 μg/ml) was 0.18 and the “1-hour treated/untreated OD600-ratio” value ([11]; 30 μg/ml) was 0.12. The “1-hour treated/untreated OD600-ratio” value ([11]; 65 μg/ml) was 0.10, the “1-hour treated/untreated OD600-ratio” value ([11]; 130 μg/ml) was 0.09 and the “1-hour treated/untreated OD600-ratio” value ([12]; 6.5 μg/ml) was 0.48. The “1-hour treated/untreated OD600-ratio” value ([12]; 13 μg/ml) was 0.25, the “1-hour treated/untreated OD600-ratio” value ([12]; 30 μg/ml) was 0.15 and the “1-hour treated/untreated OD600-ratio” value ([12]; 65 μg/ml) was 0.07. The “1-hour treated/untreated OD600-ratio” value ([12]; 130 μg/ml) was 0.09.
